Patent publication US20100015135A1

T1: human EphB4-His (human) (UniProt P54760)
T1 sequence (looked up): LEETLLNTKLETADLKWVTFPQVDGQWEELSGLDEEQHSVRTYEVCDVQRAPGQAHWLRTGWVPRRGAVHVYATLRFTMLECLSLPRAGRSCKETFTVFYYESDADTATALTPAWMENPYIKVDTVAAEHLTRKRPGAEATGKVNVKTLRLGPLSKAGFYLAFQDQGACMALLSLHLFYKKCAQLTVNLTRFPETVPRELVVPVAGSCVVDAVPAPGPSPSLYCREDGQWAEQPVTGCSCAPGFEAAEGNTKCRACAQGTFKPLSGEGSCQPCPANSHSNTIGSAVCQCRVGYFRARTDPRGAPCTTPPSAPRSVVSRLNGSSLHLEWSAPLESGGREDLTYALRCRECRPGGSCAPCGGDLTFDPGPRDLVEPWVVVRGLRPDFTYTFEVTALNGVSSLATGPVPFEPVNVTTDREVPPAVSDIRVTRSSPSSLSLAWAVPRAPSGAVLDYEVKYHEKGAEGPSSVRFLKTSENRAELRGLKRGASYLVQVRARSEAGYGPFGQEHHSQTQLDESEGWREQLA

B1: anti-EphB4 antibody clone YW30.35 (antibody, V domains shown)
VH: EVQLVESGGGLVQPGGSLRLSCAASGFTISGYYIHWVRQAPGKGLEWVGGIYPYSGSTDYADSVKGRFTISADTSKNTAYLQMNSLRAEDTAVYYCARGSGLRLGGLDYAMDYWGQGTLVTVSS
VL: DIQMTQSPSSLSASVGDRVTITCRASQDVSTAVAWYQQKPGKAPKLLIYSASFLYSGVPSRFSGSGSGTDFTLTISSLQPEDFATYYCQQSYTTPPTFGQGTKVEIK
B2: anti-EphB4 antibody clone YW30.35.1D2 (antibody, V domains shown)
VH: EVQLVESGGGLVQPGGSLRLSCAASGFTISGYYIHWVRQAPGKGLEWVGGIYPYSGSTDYADSVKGRFTISADTSKNTAYLQMNSLRAEDTAVYYCARSSGLRLGGLDYAMDYWGQGTLVTVSS
VL: DIQMTQSPSSLSASVGDRVTITCRASQDSEIFLAWYQQKPGKAPKLLIYSASNLESGVPSRFSGSGSGTDFTLTISSLQPEDFATYYCQQSNAVPLTFGQGTKVEIK
B3: anti-EphB4 antibody clone YW30.35.2D8 (antibody, V domains shown)
VH: EVQLVESGGGLVQPGGSLRLSCAASGFSISNYYLHWVRQAPGKGLEWVGGIYLYGSSSEYADSVKGRFTISADTSKNTAYLQMNSLRAEDTAVYYCARGSGLRLGGLDYAMDYWGQGTLVTVSS
VL: DIQMTQSPSSLSASVGDRVTITCRASQDVSTAVAWYQQKPGKAPKLLIYSASFLYSGVPSRFSGSGSGTDFTLTISSLQPEDFATYYCQESTTTPPTFGQGTKVEIK
B4: anti-EphB4 antibody clone YW30.35.2D12 (antibody, V domains shown)
VH: EVQLVESGGGLVQPGGSLRLSCAASGFTISGYYIHWVRQAPGKGLEWVGGIYLYSGSRGYADSVKGRFTISADTSKNTAYLQMNSLRAEDTAVYYCARGSGLRLGGLDYAMDYWGQGTLVTVSS
VL: DIQMTQSPSSLSASVGDRVTITCRASQDVSTAVAWYQQKPGKAPKLLIYSASFLYSGVPSRFSGSGSGTDFTLTISSLQPEDFATYYCQKSETIPPSFGQGTKVEIK
B5: anti-EphB4 antibody clone 30.35.2D13 (antibody, V domains shown)
VH: EVQLVESGGGLVQPGGSLRLSCAASGFTISGYYIHWVRQAPGKGLEWVGGIYLYSGSTDYADSVKGRFTISADTSKNTAYLQMNSLRAEDTAVYYCARGSGLRLGGLDYAMDYWGQGTLVTVSS
VL: DIQMTQSPSSLSASVGDRVTITCRASQDVSTAVAWYQQKPGKAPKLLIYSASFLYSGVPSRFSGSGSGTDFTLTISSLQPEDFATYYCQQTAQTPETFGQGTKVEIK

Key:
[1] = biological target: murine EphB4-His (murine) (UniProt P54761); experiment: SPR, BIAcore-3000, antibody coupled to CM5 chip, EphB4-His injected, 25 C
human EphB4-His (human) = biological target: T1, human EphB4-His (human); experiment: as above

Row | Binder | Kd [1] | koff [1] | kon [1] | Kd (human EphB4-His (human)) | koff (human EphB4-His (human)) | kon (human EphB4-His (human))
1 | B1 | 2.4 nM | 7.5e-05 s⁻¹ | 31000 M⁻¹ s⁻¹ | 32 nM | 9.6e-05 s⁻¹ | 3000 M⁻¹ s⁻¹
2 | B2 | < 0.04 nM | < 5e-06 s⁻¹ | 128000 M⁻¹ s⁻¹ | < 0.14 nM | < 5e-06 s⁻¹ | 36000 M⁻¹ s⁻¹
3 | B3 | < 0.05 nM | < 5e-06 s⁻¹ | 92000 M⁻¹ s⁻¹ | < 0.12 nM | < 5e-06 s⁻¹ | 40000 M⁻¹ s⁻¹
4 | B4 | – | – | – | < 0.19 nM | < 5e-06 s⁻¹ | 27000 M⁻¹ s⁻¹
5 | B5 | – | – | – | < 0.11 nM | < 5e-06 s⁻¹ | 45000 M⁻¹ s⁻¹
